Molecular target: T1, PUF4 RNA-binding domain (Saccharomyces cerevisiae, UniProt P25339 537-888)
T1 sequence: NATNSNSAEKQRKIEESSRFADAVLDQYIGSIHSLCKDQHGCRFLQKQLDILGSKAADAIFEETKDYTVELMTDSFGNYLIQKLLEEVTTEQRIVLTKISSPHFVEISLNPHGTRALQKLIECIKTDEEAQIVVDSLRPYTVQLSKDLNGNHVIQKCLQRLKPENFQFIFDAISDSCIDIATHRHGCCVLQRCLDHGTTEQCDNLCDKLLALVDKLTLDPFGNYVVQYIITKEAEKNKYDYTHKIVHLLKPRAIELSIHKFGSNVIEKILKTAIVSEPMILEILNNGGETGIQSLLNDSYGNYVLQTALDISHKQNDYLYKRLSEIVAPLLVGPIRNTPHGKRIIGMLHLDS
Experiment: Mg; RNA-MaP; 20 mM Na-HEPES pH 7.4, 30 mM KOAc, 0.75 mM MgCl2, 0.1% Tween-20, 5% glycerol, 0.1 mg/mL BSA, 2 mM DTT; 25 C; 0.0125-409.6 nM protein
Settings: tags: N-His6-TEV cleaved; C-SNAP kept, Cy3B-labelled; label: tethered on chip by stalled RNA polymerase

UCUCUUUCUGUAUAUAACUCUCUU (ssRNA) [Id_ii_S1_P3E.2_K3.1_C3.2_[C-2T]_[T-1C]_H3.1_A3.1_F3.1_T3.2_[T9A]_[A10C]] showed a Kd of 5.55 nM.

For UCUCUUUUUGUAUAUACUUCUCUU (ssRNA) [Id_ii_S1_P3E.2_K3.1_C3.2_[C-2T]_H3.1_A3.1_F3.1_T3.2_[T9C]_[A10T]], the Kd was 10.2 nM.

UCUCUUUCUGUAUAUAUUUCUCUU (ssRNA) [Id_ii_S1_P3E.2_K3.1_C3.2_[C-2T]_[T-1C]_H3.1_A3.1_F3.1_T3.2_[A10T]] was tested, and the Kd was 5.64 nM.

With UCUCUUUAAAUAUUAUCUCUU (ssRNA) [Ib_S1_P4E.1_K4.1_C4.1_H4.1_[G2A]_[T3A]_A4.1_F4.1_T4.1] the Kd was > 2300 nM.

With UCUCUUUAUGUAUAUAGCUCUCUU (ssRNA) [Id_ii_S1_P3E.2_K3.1_C3.2_[C-2T]_[T-1A]_H3.1_A3.1_F3.1_T3.2_[T9G]_[A10C]] the Kd was 6.81 nM.

UCUCUUUAUGUAUAUAUCUCUCUU (ssRNA) [Id_ii_S1_P3E.2_K3.1_C3.2_[C-2T]_[T-1A]_H3.1_A3.1_F3.1_T3.2_[A10C]] gave a Kd of 9.65 nM.

For UCUCUUUAUGUAUAUAUUUCUCUU (ssRNA) [Id_ii_S1_P3E.2_K3.1_C3.2_[C-2T]_[T-1A]_H3.1_A3.1_F3.1_T3.2_[A10T]], the Kd was 9.19 nM.

For UCUCUUUAUGUAUAUACUUCUCUU (ssRNA) [Id_ii_S1_P3E.2_K3.1_C3.2_[C-2T]_[T-1A]_H3.1_A3.1_F3.1_T3.2_[T9C]_[A10T]], the Kd was 15.1 nM.

With UCUCUUUUCAUAUUAUCUCUU (ssRNA) [Ib_S1_P4E.1_K4.1_C4.1_H4.1_[G2T]_[T3C]_A4.1_F4.1_T4.1] the Kd was > 2300 nM.

For UCUCUUUCUGUAUAUAUCUCUCUU (ssRNA) [Id_ii_S1_P3E.2_K3.1_C3.2_[C-2T]_[T-1C]_H3.1_A3.1_F3.1_T3.2_[A10C]], the Kd was 5.38 nM.

Binder UCUCUUACUGUAUAUAGCUCUCUU (ssRNA) [Id_ii_S1_P3E.2_K3.1_C3.2_[C-2A]_[T-1C]_H3.1_A3.1_F3.1_T3.2_[T9G]_[A10C]] has a Kd of 9.36 nM.

UCUCUUGUUGUAUAUAAUUCUCUU (ssRNA) [Id_ii_S1_P3E.2_K3.1_C3.2_[C-2G]_H3.1_A3.1_F3.1_T3.2_[T9A]_[A10T]] gave a Kd of 9.55 nM.

UCUCUUUCUGUAUAUAGCUCUCUU (ssRNA) [Id_ii_S1_P3E.2_K3.1_C3.2_[C-2T]_[T-1C]_H3.1_A3.1_F3.1_T3.2_[T9G]_[A10C]] gave a Kd of 3.8 nM.

For UCUCUUGCUGUAUAUAUCUCUCUU (ssRNA) [Id_ii_S1_P3E.2_K3.1_C3.2_[C-2G]_[T-1C]_H3.1_A3.1_F3.1_T3.2_[A10C]], the Kd was 12.6 nM.

Binder UCUCUUAGUGUAUAUAGUUCUCUU (ssRNA) [Id_ii_S1_P3E.2_K3.1_C3.2_[C-2A]_[T-1G]_H3.1_A3.1_F3.1_T3.2_[T9G]_[A10T]] has a Kd of 6.52 nM.

UCUCUUGUUGUAUAUAUAUCUCUU (ssRNA) [Id_ii_S1_P3E.2_K3.1_C3.2_[C-2G]_H3.1_A3.1_F3.1_T3.2] gave a Kd of 5.16 nM.

In the case of UCUCUUUGUGUAUAUAGUUCUCUU (ssRNA) [Id_ii_S1_P3E.2_K3.1_C3.2_[C-2T]_[T-1G]_H3.1_A3.1_F3.1_T3.2_[T9G]_[A10T]], the Kd is reported as 6.29 nM.

UCUCUUGCUGUAUAUAUGUCUCUU (ssRNA) [Id_ii_S1_P3E.2_K3.1_C3.2_[C-2G]_[T-1C]_H3.1_A3.1_F3.1_T3.2_[A10G]] showed a Kd of 12.4 nM.

UCUCUUAGUGUAUAUAUGUCUCUU (ssRNA) [Id_ii_S1_P3E.2_K3.1_C3.2_[C-2A]_[T-1G]_H3.1_A3.1_F3.1_T3.2_[A10G]] gave a Kd of 11 nM.

UCUCUUUAUGUAUAUAACUCUCUU (ssRNA) [Id_ii_S1_P3E.2_K3.1_C3.2_[C-2T]_[T-1A]_H3.1_A3.1_F3.1_T3.2_[T9A]_[A10C]] gave a Kd of 13 nM.

UCUCUUUUUGUAUAUAAAUCUCUU (ssRNA) [Id_ii_S1_P3E.2_K3.1_C3.2_[C-2T]_H3.1_A3.1_F3.1_T3.2_[T9A]] gave a Kd of 10.5 nM.

UCUCUUUCUGUAUAUAAUUCUCUU (ssRNA) [Id_ii_S1_P3E.2_K3.1_C3.2_[C-2T]_[T-1C]_H3.1_A3.1_F3.1_T3.2_[T9A]_[A10T]] showed a Kd of 4.37 nM.

Binder UCUCUUUUUGUAUAUAGGUCUCUU (ssRNA) [Id_ii_S1_P3E.2_K3.1_C3.2_[C-2T]_H3.1_A3.1_F3.1_T3.2_[T9G]_[A10G]] has a Kd of 10.7 nM.

UCUCUUGUUGUAUAUAUUUCUCUU (ssRNA) [Id_ii_S1_P3E.2_K3.1_C3.2_[C-2G]_H3.1_A3.1_F3.1_T3.2_[A10T]] gave a Kd of 8 nM.

UCUCUUUGUGUAUAUAUGUCUCUU (ssRNA) [Id_ii_S1_P3E.2_K3.1_C3.2_[C-2T]_[T-1G]_H3.1_A3.1_F3.1_T3.2_[A10G]] showed a Kd of 8.9 nM.

Work on UCUCUUUUUGUAUAUAGUUCUCUU (ssRNA) [Id_ii_S1_P3E.2_K3.1_C3.2_[C-2T]_H3.1_A3.1_F3.1_T3.2_[T9G]_[A10T]] yielded a Kd of 4.16 nM.

Binder UCUCUUUGUGUAUAUAAUUCUCUU (ssRNA) [Id_ii_S1_P3E.2_K3.1_C3.2_[C-2T]_[T-1G]_H3.1_A3.1_F3.1_T3.2_[T9A]_[A10T]] has a Kd of 9.46 nM.

In the case of UCUCUUGUUGUAUAUACCUCUCUU (ssRNA) [Id_ii_S1_P3E.2_K3.1_C3.2_[C-2G]_H3.1_A3.1_F3.1_T3.2_[T9C]_[A10C]], the Kd is reported as 20.1 nM.

UCUCUUUAUGUAUAUACCUCUCUU (ssRNA) [Id_ii_S1_P3E.2_K3.1_C3.2_[C-2T]_[T-1A]_H3.1_A3.1_F3.1_T3.2_[T9C]_[A10C]] gave a Kd of 15.5 nM.

UCUCUUUUUGUAUAUACCUCUCUU (ssRNA) [Id_ii_S1_P3E.2_K3.1_C3.2_[C-2T]_H3.1_A3.1_F3.1_T3.2_[T9C]_[A10C]] was tested, and the Kd was 12.1 nM.

With UCUCUUAGUGUAUAUAUCUCUCUU (ssRNA) [Id_ii_S1_P3E.2_K3.1_C3.2_[C-2A]_[T-1G]_H3.1_A3.1_F3.1_T3.2_[A10C]] the Kd was 13.4 nM.
